Assay results from the supplement of paper PMC9170038.

Test system: MS2 coat protein
Assay: apparent KD of MS2 coat protein; designed switch direction (-1 OFF switch, 1 ON switch): -1; higher = weaker reporter binding
How it was run: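 Designed RNA switches with common flanks were made on Illumina chips by stalled E. coli RNA polymerase. Titration with SNAP-549-labelled MS2 coat protein doubled from 0.7 or 1.5 nM up to 3 µM. Apparent KD is each design's median over clusters after curve-fitting normalised fluorescence.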

[1] = Eterna round: R95, input ligand: microRNA oligo, concentration not stated
[2] = input ligand: microRNA oligo, concentration not stated
[3] = Eterna round: R95, input ligand: FMN 200 uM
[4] = Eterna round: R95, input ligand: none

Sequence | apparent KD of MS2 coat protein [1] | apparent KD of MS2 coat protein (input ligand: FMN 200 uM) | apparent KD of MS2 coat protein [2] | apparent KD of MS2 coat protein (input ligand: none) | apparent KD of MS2 coat protein [3] | apparent KD of MS2 coat protein [4]
CAGACACAUGAGGAUCACCCAUGUGAGGAUAUGCGUACGUUGUCCGUAGGCGACGUGCGCAGAAGGCACAAAGG [JL-ex1-3.09 Eli mod] (puzzle: Exclusion 1) | 52.7 nM | – | – | – | – | –
GCACGGUUGGUAGGAUAUCCUUGCGAUUAGCAAGGAGAAGGACCACAUGAGGAUCACCCAUGUACCUCAAUAAUCCUUCCGUGC [Eli exng1 - 027] (Eterna round: R96, puzzle: Exclusion NG 1) | – | 12.8 nM | 12.1 nM | 14.7 nM | – | –
CGAUGUCUUCGGACAUCGAACAUGAGGAUCACCCAUGUAUAGAGCAGAUCUUCAUGCAAGCUUUUUGCUCGUCUUAU [Sensor v3 - turn-off variant 1 - 47] (puzzle: Sensor v3, turn-off variant 1) | 14.6 nM | – | – | – | 84.7 nM | 90.4 nM
CAGUACUGAGGAUAUACAUGAGGAUCACCCAUGUGUUCCAGCUGGGAAACUAGCAAAAGUAGAAGGCAGUACUG [salish99_ex3_r3_076] (Eterna round: R96, puzzle: Exclusion 3) | – | 287 nM | 21.4 nM | 21.8 nM | – | –
GUCAGACGAGGAUAUGAUAAUUAAUACAUGAGGAUCACCCAUGUAAUACUGAUCCAUGGAUCAGAAGGCGUCUGAC [E5/4-A4] (Eterna round: R97, puzzle: Exclusion 5) | – | 42.7 nM | – | 17.6 nM | – | –
CGAUAGAUAGGAUAUAUAAUUGGAAUUCACCUUGGGCGGCUACAUGAGGAUCACCCAUGUAGAAGGGUCUUCGA [Eternabot (L1) Solution 80] (Eterna round: R97, puzzle: Exclusion 2) | – | 16.3 nM | – | 18.5 nM | – | –
UUAAUGUGAGGAUAUCAAGUGUGAUAGAGUAAUGGUAAAUAUGAGAAGGCACAUGAGGAUCACCCAUGUUCUUC [Mat - Exclusion 4 - Mod of JL - D59] (puzzle: Exclusion 4) | 14 nM | – | – | – | – | –
CAGUACUGAGGAUAUACAUGAGGAUCACCCAUGUGUCCCUGCUAGGAAACUAGCAAUAGUAGAAGGCAGUACUG [Fiskers Ex 3 828 mod 4] (puzzle: Exclusion 3) | 17 nM | – | – | – | – | –
UCUUAACAUGAGGAUCACCCAUGUGAGGAUAUGAUGCAGCAGUGGUCUACGCUGUGCAUCAGAAGGUACAUGGG (puzzle: Exclusion 1) | 26.8 nM | – | – | – | – | –
ACGAUUGUAGGAUAUACUUGGAGAGUGUUCACAUAUUAACGACAUGAGGAUCACCCAUGUAGAAGGGCAAUCGG [Eternabot (L1) Solution 22] (Eterna round: R97, puzzle: Exclusion 2) | – | 174 nM | – | 421 nM | – | –
GCAAGCUUUUGCUCGUCUUACAUGAGGAUCACCCAUGUCGGGUGAUUGCUUCGUGCCCGGGCCCGCCGGGCCCGGGC [-41.5, -70.8 kcal, A 12%] (Eterna round: R97, puzzle: Sensor, turn-off variant 1) | – | 76.9 nM | – | 97.8 nM | – | –
GUGAGGUAAGGAUAUAGUAGUGAAGGUAAGAUAUGAGAAUGCUAGAAGGUACAUGAGGAUCACCCAUGUUCGGG [JR_Exclu4_Sub089] (puzzle: Exclusion 4) | 173 nM | – | – | – | – | –
GCACGGAUGGUAGGAUAUCUGUGCGAUUAGCUCAGAGAAGGACCACAUGAGGAUCACCCAUGUACCUCAAUUAGCUUUCCGUGC [Eli exng1 - 020] (Eterna round: R96, puzzle: Exclusion NG 1) | – | 40.7 nM | 11 nM | 15.2 nM | – | –
AGCAUGGUAGGAUAUACGGAACAUUAGGGUUUGUUGUGUGGACAUGAGGAUCACCCAUGUAGAAGGGCCGUGCA [Mat - Exclusion 2 - Mod of JL - D81] (puzzle: Exclusion 2) | 33.7 nM | – | – | – | – | –
GCAUGUUGGUAGGAUAUGCAGCGGAAACCGCUAGUAGAAGGAUUGACAUGAGGAUCACCCAUGUGAACCGAAGG [Arcelace] (Eterna round: R97, puzzle: Exclusion 6) | – | 186 nM | – | 40.4 nM | – | –
AGUAGAUCUACGCUUGCGUGGAUCUGCUAGGCAGGUGUAACAUGAGGAUCACCCAUGUCCUCAUUUGUUCGUCUUAU [JL turnoff v2 99.18] (puzzle: Sensor v3, turn-off variant 2) | 313 nM | – | – | – | 85.4 nM | 28.3 nM
GGUGCGUUUGUGAGGAUAUGCUGGUCCUUGGAUCUGCAGAAGGCACAUGAGGAUCACCCAUGUGGUGUCGUACC [salish99_Bmod_Ex4_036] (puzzle: Brourd's mod of Exclusion 4) | 208 nM | – | – | – | – | –
CGGGCGCGAGGAUAUACAUGAGGAUCACCCAUGUAACGGCGAGCAAUGUUUGUUGCGUGUAGAAGGUGUGUUUG [-20.1, -18.7 kcal, A 27%] (Eterna round: R97, puzzle: Exclusion 3) | – | 112 nM | – | 155 nM | – | –
CGGCAUGUCUGAGGAUAUCUGCACGUGUAGUGCAGAGAAGGCAGAACAUGAGGAUCACCCAUGUAGAUCAUUAACCGAUUAAUU [ENG1/7-A3] (Eterna round: R96, puzzle: Exclusion NG 1) | – | 201 nM | 162 nM | 184 nM | – | –
GGUCGAGAACAGCUCCGCGCCGCCCUCGACCGCUCAUUUACAUGAGGAUCACCCAUGUUUUUUGCUUGUCUUGUUUC [Ceerar] (puzzle: Sensor v3, turn-off variant 2) | 98.4 nM | – | – | – | 20.6 nM | 23.4 nM
AAUAAUAAACAAGCUUUUUACAUGAGGAUCACCCAUGUCCUCUGCUCGUCUUAUCUUGGGCUUUUUUUGGGUUCGGG [-16.4, -45 kcal, A 21%] (Eterna round: R97, puzzle: Sensor, turn-off variant 1) | – | 813 nM | – | 891 nM | – | –
AAUAACAGAGGAUAUACUAUUUUAUGUAUUUAUUAUUUUAAACAUGAGGAUCACCCAUGUAGAAGGCUGAAUGA [JMF 54] (puzzle: Exclusion 2) | 21.6 nM | – | – | – | 20.6 nM | 21.5 nM
UAAUGUAUAUAGGAUAUCUAGCUGGAAACAGCUAGAGAAGGAUGUACAUGAGGAUCACCCAUGUAAAUCGUGAA [Ex6/13-B1] (Eterna round: R97, puzzle: Exclusion 6) | – | 60.4 nM | – | 24.9 nM | – | –
ACAUGAGGAUCACCCAUGUGAAAAGAAUGGCUGACACAGAGAUAGGAUAUGCGUGCAUAUCUAACGCAGAAGGGUCAUGACUGG [Deportation 81 - Jieux - Exclusion NG 3] (Eterna round: R96, puzzle: Exclusion NG 3) | – | 25.9 nM | 22.4 nM | 28.3 nM | – | –
UACAUGAGGAUCACCCAUGUUUUGUCGUGUAUGGUAUUUAUCUAGGAUAUCAAGUUAUUUGUUUAUGAGAAGGAGAAUAUUAAU [JMF's solution 33] (Eterna round: R96, puzzle: Exclusion NG 3) | – | 37.1 nM | 26.1 nM | 37.1 nM | – | –
UGGAAGUGAGGAUAUCCAAUAUAUGACAUGAGGAUCACCCAUGUUUCCACUCGUACCUCCGGAGAAGGCACAAGGU [Ex5 #56] (Eterna round: R97, puzzle: Exclusion 5) | – | 56.5 nM | – | 57.3 nM | – | –
